Target: SKIV2L (hSKI complex subunit);TTC37 (hSKI complex subunit);WDR61 (hSKI complex subunit) (human;human;human, UniProt Q15477;Q6PGP7;Q9GZS3 1-1246;1-1564;1-305, ||)
Assay: EMSA; 2 mM Mg2+; 25 mM Hepes-KOH pH 7.6, 2 mM Mg acetate, 50 mM NaCl, 1 mM DTT, 0.1 mg/ml BSA, 1 nM substrate, 37 C 30 min; 0.7% agarose gel at 4 C

AGCGTATCCGTTCAGTTG (ssDNA) [Non-TEL18]
Kd: 30 nM

B1: dsRNA (ss poly(A) + Css27) (dsRNA)
RNA 1: CCCCACCACCAUCACUUAAAAAAAAAA
RNA 2: UUUUUUUUUUAAGUGAUGGUGGUGGGG
binding result: no binding

CCCCACCACCAUCACUUAAAAAAAAAA (ssRNA) [ss poly(A)]
binding result: binds

GGTTAGGGTTAGGGTTAG (ssDNA) [TEL18]
Kd: 12 nM

CCCCACCACCATCACTTAAAAAAAAAA (ssDNA) [ss poly(A) DNA]
binding result: binds

— PMC11530851
